Drawing on patent US20080293634A1 (WASHINGTON STATE UNIVERSITY RESEARCH FOUNDATION, published 2008), this text covers IC50 and Kd for one molecule.

Non-standard residues stand in square brackets, D forms with d. No end group written: not given here. Nle = CCCC[C@H](N)C(=O)O

Experiment [1] has as its target T1, c-Met receptor on mouse liver plasma membranes (mouse, UniProt P16056 25-1379).
T1 construct: whole, on cells; Membrane preparation from mouse liver
Nature of the experiment: competition with 50 pM ^125I-HGF for binding to mouse liver plasma membranes; mean ±SEM, n=3. The procedure:
Mouse liver plasma membranes were incubated with […] ¹²⁵I-HGF and the indicated concentrations of HGF or Norleual. Results are presented as percent of specific ¹²⁵I-HGF binding and error bars indicate±standard error of mean (SEM). Competition experiments included quadruplicate data points and each experiment was repeated in triplicate.
(§1) ¹²⁵I-HGF binding assay. Mouse liver was homogenized in hypotonic buffer fortified with 0.1% bovine serum albumin as described by Hanesworth et al. (1993). 600 μg of membrane protein was incubated with 50 pM ¹²⁵I-HGF with various concentrations of HGF or Norleual in a total volume of 100 μl phosphate-buffered saline (PBS) fortified with 0.1% BSA. Binding occurred for one hour on ice. Membranes were pelleted by centrifugation and washed twice with incubation buffer. Radioactivity was counted with a gamma counter (Isomedic 10/880, ICN, Cost Mesa, Calif., USA). Specific binding was calculated and normalized to control counts. Competition fits by Prism software (GraphicPad, San Diego, Calif.) were performed according to the manufacturer's instructions.
Materials and methods were as described in Example 1. In separate tests of unlabeled competitors, both Norleual and HGF competed with ¹²⁵I-HGF for high affinity binding to mouse liver plasma membranes (FIGS. 2A, 2B). […]

In experiment [2] the target is T2, c-Met receptor on human cells (HEK293 cells and membranes, HUVEC) (human, UniProt P08581 25-1390).
T2 construct: Endogenous receptor of human embryonic kidney HEK293 cells, HEK293 membranes and HUVEC; also called hepatocyte growth factor receptor; HGF-R
The experiment in a line: unlabeled Norleual against ^125I-Norleual on HEK293 membranes; two-site competition fit, low-affinity site. As to the method:
(§2) FIG. 3C: ¹²⁵I-Norleual was bound to HEK membranes in the presence or absence of 1.5 nM HGF (n=8) or 1 μM Norleual (n=6). Total binding is reported as percent control (n=10), (*p<0.001). Error bars indicate±SD. […] Error bars indicate SD and data points were performed in duplicate.
(§3) ¹²⁵I-Norleual binding assay. HEK293 cells were grown to confluency in DMEM fortified with 10% FBS. Media was aspirated and cells were washed twice with ice-cold PBS. Cells were lysed with hypotonic buffer and homogenized as described by Zhang et al. (1999, J. Pharmacol. Exp. Ther. 289: 1075-1083; 2003 J. Cell Biochem. 88: 408-417). 450 μg of membrane protein was incubated with 1.5 nM ¹²⁵I-Norleual with or without Norleual or HGF in a total volume of 250 μl PBS, 0.1% BSA. Tubes were spun and binding was carried out for 60 minutes at RT. Bound and free ligands were separated by vacuum filtration using (Brandel Cell Harvester, Schleicher & Schull, Keene, N.H., USA) 32 glass filters. Radioactivity retained by the filters was measured using a gamma counter. […] Data analysis was preformed using Prism software (GraphicPad) per the supplier's recommendations.

The target of experiment [3] is T1, c-Met receptor on mouse liver plasma …. Nature of the experiment: competition with ^125I-HGF at various concentrations of COMPOUND 2 (mouse liver membranes). As to the method: as §1
Briefly, COMPOUND 2 was iodinated with […] and bound and cross-linked to HEK cell membranes with or without 1 nM COMPOUND 2 or 1 nM hepatocyte growth factor. Following solubilization and separation of free label by molecular sieving, total radioactive counts were determined. The ability of the ligand COMPOUND 2 to compete with hepatocyte growth factor binding to the c-Met receptor was also tested using mouse liver plasma membranes and intact HEK293 cells. […] Membranes were pelleted and unbound label was removed by washing, and total radioactive counts were determined. […]

For experiment [4], the target named is T2, c-Met receptor on human cells (HEK293 …). Nature of the experiment: unlabeled Norleual against ^125I-Norleual on HEK293 membranes; two-site competition fit, high-affinity site. As to the method:
as §2, §3

T2 sequence (P08581 other isoform, or with tags, fused parts or gaps limits assumed): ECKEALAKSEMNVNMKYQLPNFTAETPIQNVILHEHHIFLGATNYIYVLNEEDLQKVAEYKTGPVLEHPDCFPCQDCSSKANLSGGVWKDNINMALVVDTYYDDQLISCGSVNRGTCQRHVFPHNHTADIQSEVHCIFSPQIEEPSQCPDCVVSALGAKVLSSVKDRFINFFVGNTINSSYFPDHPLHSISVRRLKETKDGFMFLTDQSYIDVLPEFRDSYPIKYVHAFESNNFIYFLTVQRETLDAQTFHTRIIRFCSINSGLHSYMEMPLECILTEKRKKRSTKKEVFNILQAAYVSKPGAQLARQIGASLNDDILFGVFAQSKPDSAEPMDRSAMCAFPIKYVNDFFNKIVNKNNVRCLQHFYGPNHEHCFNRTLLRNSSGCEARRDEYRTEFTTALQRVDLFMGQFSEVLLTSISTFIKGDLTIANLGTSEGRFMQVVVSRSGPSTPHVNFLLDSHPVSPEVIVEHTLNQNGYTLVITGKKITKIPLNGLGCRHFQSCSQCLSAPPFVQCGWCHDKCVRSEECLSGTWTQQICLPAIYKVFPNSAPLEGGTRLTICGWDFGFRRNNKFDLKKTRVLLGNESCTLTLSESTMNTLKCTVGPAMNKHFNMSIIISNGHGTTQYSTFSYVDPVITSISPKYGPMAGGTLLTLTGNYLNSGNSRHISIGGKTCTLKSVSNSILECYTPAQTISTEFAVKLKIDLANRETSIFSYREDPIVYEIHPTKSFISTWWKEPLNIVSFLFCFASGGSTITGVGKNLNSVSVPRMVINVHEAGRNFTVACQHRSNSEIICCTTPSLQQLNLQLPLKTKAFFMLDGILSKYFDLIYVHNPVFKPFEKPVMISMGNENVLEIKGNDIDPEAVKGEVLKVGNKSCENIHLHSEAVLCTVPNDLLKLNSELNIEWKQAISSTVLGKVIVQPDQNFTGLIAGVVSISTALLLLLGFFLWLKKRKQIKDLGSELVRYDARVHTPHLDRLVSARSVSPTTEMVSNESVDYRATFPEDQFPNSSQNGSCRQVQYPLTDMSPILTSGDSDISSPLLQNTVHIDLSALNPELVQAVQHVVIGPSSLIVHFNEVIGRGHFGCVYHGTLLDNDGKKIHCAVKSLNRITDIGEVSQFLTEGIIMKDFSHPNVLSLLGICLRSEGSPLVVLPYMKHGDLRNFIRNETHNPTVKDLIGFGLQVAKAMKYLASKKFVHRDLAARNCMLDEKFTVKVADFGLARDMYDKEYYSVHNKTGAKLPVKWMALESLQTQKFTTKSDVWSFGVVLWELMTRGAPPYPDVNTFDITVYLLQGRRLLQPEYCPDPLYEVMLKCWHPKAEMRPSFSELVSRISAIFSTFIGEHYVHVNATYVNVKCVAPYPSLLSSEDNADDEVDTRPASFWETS
T1 sequence (P16056 25-1379): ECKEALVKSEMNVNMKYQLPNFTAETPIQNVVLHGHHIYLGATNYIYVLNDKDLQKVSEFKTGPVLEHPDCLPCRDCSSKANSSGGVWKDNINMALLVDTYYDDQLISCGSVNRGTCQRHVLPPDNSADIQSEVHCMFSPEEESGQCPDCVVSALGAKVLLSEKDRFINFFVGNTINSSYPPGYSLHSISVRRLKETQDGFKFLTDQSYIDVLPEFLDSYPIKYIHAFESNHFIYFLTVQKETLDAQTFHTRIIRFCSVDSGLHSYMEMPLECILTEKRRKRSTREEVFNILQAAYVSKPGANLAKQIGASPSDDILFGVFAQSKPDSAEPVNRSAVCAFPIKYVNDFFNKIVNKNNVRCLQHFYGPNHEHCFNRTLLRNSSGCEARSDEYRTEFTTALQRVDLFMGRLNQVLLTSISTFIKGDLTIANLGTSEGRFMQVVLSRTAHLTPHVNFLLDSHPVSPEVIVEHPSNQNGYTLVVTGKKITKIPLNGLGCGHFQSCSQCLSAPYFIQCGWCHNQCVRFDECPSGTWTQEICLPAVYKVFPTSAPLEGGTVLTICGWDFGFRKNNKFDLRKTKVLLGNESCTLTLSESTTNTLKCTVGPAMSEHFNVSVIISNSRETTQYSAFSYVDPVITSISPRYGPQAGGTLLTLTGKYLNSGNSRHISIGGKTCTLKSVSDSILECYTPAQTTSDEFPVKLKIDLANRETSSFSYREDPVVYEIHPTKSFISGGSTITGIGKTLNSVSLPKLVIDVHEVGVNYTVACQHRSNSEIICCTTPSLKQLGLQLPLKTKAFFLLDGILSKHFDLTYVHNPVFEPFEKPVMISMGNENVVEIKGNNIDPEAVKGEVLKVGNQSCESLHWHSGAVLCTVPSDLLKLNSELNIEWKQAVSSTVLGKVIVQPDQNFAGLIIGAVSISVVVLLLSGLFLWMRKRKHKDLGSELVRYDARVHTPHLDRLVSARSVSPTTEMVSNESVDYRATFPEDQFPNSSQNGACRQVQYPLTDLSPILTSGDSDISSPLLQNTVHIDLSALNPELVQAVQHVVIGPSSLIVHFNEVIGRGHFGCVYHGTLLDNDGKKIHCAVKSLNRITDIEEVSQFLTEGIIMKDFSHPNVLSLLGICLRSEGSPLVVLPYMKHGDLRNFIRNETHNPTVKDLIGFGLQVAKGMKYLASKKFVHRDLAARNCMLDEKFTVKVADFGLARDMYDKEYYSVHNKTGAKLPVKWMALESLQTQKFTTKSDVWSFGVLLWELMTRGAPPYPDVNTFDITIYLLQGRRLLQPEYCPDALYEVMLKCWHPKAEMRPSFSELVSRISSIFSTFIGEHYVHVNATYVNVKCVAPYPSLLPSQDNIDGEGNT

B1: Norleual (Nle-Tyr-Leu-ψ-(CH2-NH2)-His-Pro-Phe) (peptide)
peptide: [Nle]YLHPF
modifications: not fully specified; printed as Nle-Tyr-Leu-ψ-(CH2-NH2)-His-Pro-Phe; also: reduced peptide bond ψ(CH2-NH) between Leu3 and His4
notes: Synthesized by Syngene and purified by reverse phase HPLC; Peptidomimetic hexapeptide; also called Compound 2; COMPOUND 2
A word on the IC50: it is the point on the concentration scale where inhibition reaches its midpoint. A low value points to greater potency in that assay. What is called Kd is the concentration at which binding is half-saturated. A high value points to lower affinity. Take B1: the IC50 in experiment [1] amounted to 0.0031 nM; in experiment [2] it was 7.4 nM; in experiment [4], 0.048 nM. The same molecule displayed a Kd in experiment [3] of roughly 0.003 nM.
